Measurements as given in the RNAGym collection of RNA variant scans (doi:10.1073/pnas.2313332121).

B1: TPR t1 (parent)
chain: GACCAAUCUGCCCUCAGAGCUCGAGAACAUCUUCGGAUGCAGAGGAGGCAGGCUUCGGUGGCGCGAUAGCGCCAACGUCCUCAACCUCCAAUGCAUCCCACCACAUGAUGAUGCCUGAAGAGCCUUGGUUUUUUG

Variants of: B1
Assay: polymerase ribozyme fitness, log enrichment relative to wild type (log ratio); higher = more active; in vitro selection for triplet polymerase activity
Method in brief: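 Streptavidin-bead capture of gel-excised extended constructs, followed by RT-PCR, closed a single triplicate in vitro selection round. That round began by annealing PCR-built, transcribed mutant libraries of each subunit of a heterodimeric triplet polymerase ribozyme with a biotinylated primer, the partner subunit and triplets, then incubating them frozen at −7 °C. After Illumina sequencing of inputs and outputs, genotypes needed ≥10 input reads and ≥1 read per output. Fitness is the base-2 logarithm of genotype enrichment over wild-type enrichment, using inverse-variance-weighted replicate averages.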

Variant | polymerase ribozyme fitness (log ratio)
G10A A24G | -1.53
G10A A37C A84C A95G | -0.834
U9G G36U G57U | -0.893
G10A G58C C123A | 1.18
U9G C56G G61U G93C | -3.2
G10A U38C G45A C79U | -1.29
U9G A100U G128A | -1.71
U9G G17A A18U A46U C73A A84G U87A U112C G127C U134A | -3.68
U9G A41U G61U U87A G110A | -3.56
U9G G65C | -5.24
U9G G51A | -1.96
U9G C70U C98U | -1.09
U9G G65C A121U | -4.76
U9G A118U G120U G122A | 1.52
U9G G61A C97U A100C A108G | -2.88
G10A G17U A18U C115U C123G U130A | -4.27
G10A C82A A95U | -0.318
G10A A66G A103U U106A G110U G120A C124A G127A | -6.98
U9G C13A G110A | -1.62
U9G G17C A26G | -3.96
G10A G35U C56G C88A G120C U133A | -4.15
G10A G42U C72A C76G C115A | -3.07
U9G U109A G120C | -4.55
G10A C22G G47A G60A | -3.93

Variant | polymerase ribozyme fitness (log ratio)
U9G C101U | 0.459
U9G C34U A68G U78C C97U A111U | -6.62
G10A A27G C76U C94A | -5.09
U9G G48U C49U C73G G120U | 0.0812
U9G G61U C70U C82U C115U C123A | -3.33
G10A C62U G69A A121U G127U | -1.42
G10A A74G A119U | -0.71
G10A C34U U87G | -3.98
U9G A43G C49A U81A G127U U133G | -2.11
G10A C22G G61A G71C A111U G117A | -7.23
U9G C22A C34A C82U U130C | -6.39
U9G G61A C80A A95C G110U C115A A119C | -7.18
G10A U21A A27G C53A | -0.87
G10A C56U C94G | -0.664
G10A C64U | -0.954
U9G G23A | -5.2
G10A A74C U78A A111G | -0.232
G10A C13A U112A | 0.644
U9G A37U G42C C86A U112A | -2.41
G10A C11U C13U C62A C79A U106C G122A | -3.29
G10A G61A A111G | 0.12
U9G C70A C86A C123U | -0.996
G10A G61C A83U | -2.03
G10A G17A C82A | -3.46

Variant | polymerase ribozyme fitness (log ratio)
G10A C12G C40A C115U A119G G120C U131A | -0.621
G10A C13A C22A A46G C49A G122A | -6.21
U9G C56G U81G | -1.23
U9G C12G C53A C99U C102U | -5.32
G10A C72A U87G C102U | -1.09
G10A C13A C70U | -1.36
G10A G63A C89A | -3.25
G10A C11G G51U | -2.64
U9G G51C C56G C80G A119U | -0.301
G10A A74U | -0.813
G10A C76U U78A C85A U125G | -1.57
G10A A43G | -1.53
G10A G71C U81A A100C | -4.69
G10A G17A | -3.1
G10A G117C | -4.43
G10A A41C G52U C79U C82G U130G | -2.72
G10A G17C C34A G47U C72G C80U C124A | -7.1
G10A U21G G60A A103C C114A | -5.69
U9G U14C U38G G61U C72U A91U C124U | -3.69
U9G C88A | -0.00805
U9G C88U | -0.0494
G10A C70U | -0.224
G10A C13U | 0.219
U9G U54C G69A C80U | -2.99

Variant | polymerase ribozyme fitness (log ratio)
G10A G17A U106A | -3.51
G10A C64U A103U C123U | -3.16
U9G U54G U81A U125A G128U | -3.65
U9G C31A A46C G71A G110A | -6.51
U9G C85U C97A C115G | -4.92
U9G C80A | -2.27
G10A G44A A46U G48C | -1.66
U9G G63U G128C | -3.23
G10A C34U G77A | -5.24
G10A C22U | -4.59
U9G G61U | 0.804
G10A C62U | 0.124
G10A C62A | -0.929
U9G G42C A103G C124A | -6.09
G10A C22G G61U A95U | -3.63
U9G C53G C115A G127U | -0.417
G10A C40G | -0.282
U9G U92G C115G U132C | -0.718
G10A G61A C94U | -0.166
G10A C53A C72U C79A U96G | -1.55
U9G C80U U106C | 0.49
G10A A41C C53G U133C | -1.29
U9G G63A U92G C98G C115G G128A | -6.12
G10A G57U C72A C79A U96A | -2.33

Variant | polymerase ribozyme fitness (log ratio)
U9G G45U A74C G77A U112C | 0.536
U9G G39A C64U G93C C94G | -4.56
U9G G120U | 1.06
G10A G58C | 0.631
G10A G69U C79A A103C C115U G122A | -5.83
G10A A41U | -0.89
G10A C72U C89G G93U | -2.93
U9G G71A C80U C98U G110U | -6.92
G10A A83C G128U | -2.33
G10A A41C C56U U78G C82U | -1.79
G10A G122A | 0.549
G10A U87G G110U | -1.12
G10A A16U C85G | -3.05
G10A G19A A74U | -3.32
G10A G44U U92G C115A | -3.73
G10A C20U C97G C123U | -3.15
U9G C11A U87A | -0.55
U9G U54A C56A G71A | -2.22
U9G A83C C85U A121C U130C | 1.97
G10A G19U | -3.62
U9G C13U C104A | -1.55
U9G C12G G60U | 0.216
U9G C13U A91U G113A A119C G128A | -4.02
U9G C13A C28U G47U C86G | -1.92

Variant | polymerase ribozyme fitness (log ratio)
U9G C11G | -4.02
U9G A41U A95C | -2.53
U9G C40G C53G U130G | -1.2
U9G G77A | 0.17
U9G C98U | -0.308
U9G C98A | -5.08
G10A G42A | -1.32
U9G A95G | 0.394
G10A G51U C101A | -4.71
U9G C89A A100U U116A | -4.84
U9G C28U G117C U131G | -4.94
U9G U32A C62G U92G G117C | -5.56
U9G G19U G44A G58C | -3.46
G10A C94A C97U U106A | -0.642
U9G A41U A95C U131A | -1.93
U9G C22G C34G G69U | -3.72
G10A G45A | -1.2
G10A G45C | -0.489
U9G C73A | -0.668
G10A C11U C89A | -2.04
G10A U59A C62A C89G | -5.2
U9G C12G U78C | 0.323
G10A A29U G69U A83U C114G C123G | -2.26
U9G U32C G52C G110C | -5.7

Variant | polymerase ribozyme fitness (log ratio)
U9G C11A G39C C72G G77C A118U | -2.83
U9G G47C G60C A83C | -3.63
U9G U109C | -3.57
G10A C15G A16G G63A C80U G113C | -4.34
U9G U38G | -0.556
U9G G93C A100U A118G | -1.35
U9G G45C C79A U130C | -2.2
G10A C22A C79A G120U C123G | -5.58
U9G C11G C94U A111C | -4.33
G10A G35A G77A | -5.04
G10A C40A C72U C76A C99A | -7.55
U9G C53A G71U C86U A100U G110U | -4.22
U9G A50C G63C | -1.21
U9G C115U | -0.945
U9G U78C C79G G110A | -2.65
G10A C31U G61C C82A C94G C124U | -5.7
G10A G51A C70U A119G | -4.32
U9G G113C | -1.34
U9G G113U | -1.66
U9G C13A | -0.971
G10A A29U A41C C73U A74U G113U | -3.95
G10A C97A G120U | -4.42
U9G C11G C40U | -4.28
